In the assay the target is 融合蛋白gD-CD2v (猪伪狂犬病病毒 PRV HN1201; 非洲猪瘟病毒 ASFV SY18).

Our source for the 阻断率 values is patent publication CN117007808A.

B1: 非洲猪瘟病毒CD2v蛋白单克隆抗体5G8 (antibody, V domains shown)
VH: YDHDYAKLGTELGSTSNGRQCAGIALTSRMKLWLNWVKQSHGKSLEWIGVIDPNNGGTTYNQKFKGKATLTVDKSSSTAYMEVRSLTSEYSAVYYCARYGKGIGLDYWGQGTSVTVSS
VL: DVVMTQTPLSLPVSLGDQASISCRSSQSLVHRNGNTYLHWYLQKPGQSPKLLIYKVSNRFSGVPDRFSGSGSGTDFTLKISRVEAVDLGVYFCSQSTHVPWTFGGGTKLEIK
As for B1, the 阻断率 was 91 %.
